Values of other authors as cited in publication PMC8797470, “Disruption of the pentraxin 3/CD44 interaction as an efficient therapy for triple‐negative breast cancers” (Clinical and Translational Medicine, 2022).

Target: PTX3 (Homo sapiens) (UniProt P26022)
Sequence (P26022 18-381): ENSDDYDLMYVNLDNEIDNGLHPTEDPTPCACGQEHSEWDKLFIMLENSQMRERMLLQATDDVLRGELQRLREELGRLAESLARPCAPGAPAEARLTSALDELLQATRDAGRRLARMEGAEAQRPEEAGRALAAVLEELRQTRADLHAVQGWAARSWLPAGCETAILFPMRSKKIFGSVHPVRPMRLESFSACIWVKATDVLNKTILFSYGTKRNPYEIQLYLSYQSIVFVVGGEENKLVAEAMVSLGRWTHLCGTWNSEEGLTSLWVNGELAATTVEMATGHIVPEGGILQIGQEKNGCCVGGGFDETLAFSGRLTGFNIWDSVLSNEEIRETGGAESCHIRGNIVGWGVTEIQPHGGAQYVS

TSG-6 link module, sequence (P98066 36-129): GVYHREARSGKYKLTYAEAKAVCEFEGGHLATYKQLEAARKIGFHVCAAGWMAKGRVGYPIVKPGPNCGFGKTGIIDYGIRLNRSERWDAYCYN

Kd: 481 nM
Substance: TSG-6 link module (from UniProt P98066)
